Paper doi:10.1101/2021.07.28.454260

Molecular target: HupA fused to a split luciferase fragment (positive control of the assay)
Assay: split reporter

## HupA fused to a split luciferase fragment (positive control of the assay) (natural protein)
  increase in luminescence signal after 1 hour of induction: > 2
